From patent WO2005054294A2 (dated 2005) come the findings set out here.

The assay deals with T1, human platelet glycoprotein VI (human, UniProt Q9HCN6 21-339).
T1 sequence (looked up): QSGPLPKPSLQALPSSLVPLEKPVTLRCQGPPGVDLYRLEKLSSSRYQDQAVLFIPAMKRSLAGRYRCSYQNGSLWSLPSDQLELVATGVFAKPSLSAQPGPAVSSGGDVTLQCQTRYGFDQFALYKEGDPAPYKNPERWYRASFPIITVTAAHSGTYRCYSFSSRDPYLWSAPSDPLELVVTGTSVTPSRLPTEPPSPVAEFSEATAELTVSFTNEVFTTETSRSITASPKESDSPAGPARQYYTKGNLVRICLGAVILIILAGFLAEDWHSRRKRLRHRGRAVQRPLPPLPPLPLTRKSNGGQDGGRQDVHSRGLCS
Put plainly: cell-based or functional assay.

B1: hGP 5C4 Fab (Fab, V domains shown)
VH: EVKLQESGGGLVQPGRSLKLSCTASGFTFSDYFMSWVRQAPTRGLEWVASISSGGASAYWRDSVKGRFTISRDNAKSALYLQMDSLRSEDTATYFCARGELDFDYWGQGVMVAVSS
VL: ADPNSTLLSASVGDRVTLNCTASQNVYKNLAWYQQKLGEAPRLLLYSANSQTGIPSRFSGSGSGPDFTLTISSLQPEDVASYFCQQYYSGNTFGAGTKLELKR
As to B1, the “IC50 of inhibition of collagen-induced (3 ug/ml) human platelet aggregation ex vivo” value came out at 0.12 µg/mL.
